Results reported in publication doi:10.1101/2025.11.10.687665.

Target: streptavidin 2 (Sav2) (Streptomyces avidinii)

Substance: streptavidin 2 (Sav2) (domain or fragment)
- stoichiometry N: 4
